Measurements: patent EP1516629B1 (Genentech, Inc., dated 2013)
Positions count from the first letter of the chain named. Names and notes keep the numbering of the source. Values joined by “and” are separate entries in the source; they are usually repeats but may differ in a detail not shown here. Equal entries are not always repeated. Where two headings read alike, the source gives them in different places.

Tests used:
[1] = biological target: T1, human CD11a (human, UniProt P20701 26-1170); test: cell-based or functional assay
[2] = biological target: T1, human CD11a; test: saturation binding, human lymphocytes, donor 2, Kd(app)
[3] = biological target: T2, rhesus CD11a (rhesus, UniProt H9Z8N3 26-1169); test: cell binding EC50, rhesus against human CD11a
T2 construct: whole, on cells; also called rhCD11a
T2 sequence: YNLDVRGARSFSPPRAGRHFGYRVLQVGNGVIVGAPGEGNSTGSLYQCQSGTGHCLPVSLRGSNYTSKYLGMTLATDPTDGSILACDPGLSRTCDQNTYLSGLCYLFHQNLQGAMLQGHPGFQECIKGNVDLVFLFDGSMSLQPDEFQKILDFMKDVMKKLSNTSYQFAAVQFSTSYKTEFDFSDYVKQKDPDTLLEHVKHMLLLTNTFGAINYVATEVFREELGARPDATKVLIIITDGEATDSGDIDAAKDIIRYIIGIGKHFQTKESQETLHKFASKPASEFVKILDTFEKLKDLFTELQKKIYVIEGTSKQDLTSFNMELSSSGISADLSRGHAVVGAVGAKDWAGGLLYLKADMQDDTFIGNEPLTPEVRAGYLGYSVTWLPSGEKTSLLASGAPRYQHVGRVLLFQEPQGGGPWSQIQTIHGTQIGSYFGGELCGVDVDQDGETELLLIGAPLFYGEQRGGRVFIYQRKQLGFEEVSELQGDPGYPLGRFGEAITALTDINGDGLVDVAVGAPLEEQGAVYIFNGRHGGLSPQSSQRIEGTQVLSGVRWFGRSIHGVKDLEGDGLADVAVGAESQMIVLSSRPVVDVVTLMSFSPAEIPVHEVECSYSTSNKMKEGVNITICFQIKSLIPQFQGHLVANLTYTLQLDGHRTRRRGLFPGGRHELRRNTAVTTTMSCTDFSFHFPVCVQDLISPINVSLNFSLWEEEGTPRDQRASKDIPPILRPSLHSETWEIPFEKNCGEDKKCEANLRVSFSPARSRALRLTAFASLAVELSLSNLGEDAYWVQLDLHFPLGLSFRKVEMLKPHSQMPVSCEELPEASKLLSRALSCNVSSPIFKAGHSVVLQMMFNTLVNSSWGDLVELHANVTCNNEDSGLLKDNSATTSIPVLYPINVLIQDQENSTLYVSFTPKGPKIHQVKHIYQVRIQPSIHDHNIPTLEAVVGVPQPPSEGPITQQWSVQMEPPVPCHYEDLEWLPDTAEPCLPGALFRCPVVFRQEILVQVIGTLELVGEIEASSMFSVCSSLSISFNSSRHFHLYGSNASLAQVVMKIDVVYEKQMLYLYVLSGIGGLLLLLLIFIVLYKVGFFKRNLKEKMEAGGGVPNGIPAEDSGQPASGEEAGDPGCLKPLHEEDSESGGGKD

[4] = biological target: T1, human CD11a; test: saturation binding of 125I-antibody to human mononuclear cells, Kd(app)
[5] = biological target: T1, human CD11a; test: saturation binding, human lymphocytes, donor 1, Kd(app)
[6] = biological target: T1, human CD11a; test: FACScan, Jurkat cells
[7] = biological target: T2, rhesus CD11a; test: binding to rhesus peripheral blood lymphocytes
[8] = biological target: T1, human CD11a; test: FACScan, Jurkat cells; remark: listed apart in the source
[9] = biological target: T1, human CD11a; test: FACScan, Jurkat cells; remark: listed apart in the source
[10] = biological target: T1, human CD11a; test: cell-based or functional assay; remark: listed apart in the source
[11] = biological target: T2, rhesus CD11a; test: binding to rhesus peripheral blood lymphocytes; remark: listed apart in the source
[12] = biological target: T2, rhesus CD11a; test: saturation binding, Kd(app)
[13] = biological target: T2, rhesus CD11a; test: cell binding EC50 on rhesus CD11a against HuIgG1 on human CD11a
[14] = biological target: T2, rhesus CD11a; test: saturation binding, rhesus leukocytes, donor 1, Kd(app)
[15] = biological target: T3, rhesus-human chimeric CD11a (Rh/HuCD11a) (human (I-domain mutated to rhesus), UniProt P20701 26-1170); test: cell-based or functional assay
T3 sequence (looked up): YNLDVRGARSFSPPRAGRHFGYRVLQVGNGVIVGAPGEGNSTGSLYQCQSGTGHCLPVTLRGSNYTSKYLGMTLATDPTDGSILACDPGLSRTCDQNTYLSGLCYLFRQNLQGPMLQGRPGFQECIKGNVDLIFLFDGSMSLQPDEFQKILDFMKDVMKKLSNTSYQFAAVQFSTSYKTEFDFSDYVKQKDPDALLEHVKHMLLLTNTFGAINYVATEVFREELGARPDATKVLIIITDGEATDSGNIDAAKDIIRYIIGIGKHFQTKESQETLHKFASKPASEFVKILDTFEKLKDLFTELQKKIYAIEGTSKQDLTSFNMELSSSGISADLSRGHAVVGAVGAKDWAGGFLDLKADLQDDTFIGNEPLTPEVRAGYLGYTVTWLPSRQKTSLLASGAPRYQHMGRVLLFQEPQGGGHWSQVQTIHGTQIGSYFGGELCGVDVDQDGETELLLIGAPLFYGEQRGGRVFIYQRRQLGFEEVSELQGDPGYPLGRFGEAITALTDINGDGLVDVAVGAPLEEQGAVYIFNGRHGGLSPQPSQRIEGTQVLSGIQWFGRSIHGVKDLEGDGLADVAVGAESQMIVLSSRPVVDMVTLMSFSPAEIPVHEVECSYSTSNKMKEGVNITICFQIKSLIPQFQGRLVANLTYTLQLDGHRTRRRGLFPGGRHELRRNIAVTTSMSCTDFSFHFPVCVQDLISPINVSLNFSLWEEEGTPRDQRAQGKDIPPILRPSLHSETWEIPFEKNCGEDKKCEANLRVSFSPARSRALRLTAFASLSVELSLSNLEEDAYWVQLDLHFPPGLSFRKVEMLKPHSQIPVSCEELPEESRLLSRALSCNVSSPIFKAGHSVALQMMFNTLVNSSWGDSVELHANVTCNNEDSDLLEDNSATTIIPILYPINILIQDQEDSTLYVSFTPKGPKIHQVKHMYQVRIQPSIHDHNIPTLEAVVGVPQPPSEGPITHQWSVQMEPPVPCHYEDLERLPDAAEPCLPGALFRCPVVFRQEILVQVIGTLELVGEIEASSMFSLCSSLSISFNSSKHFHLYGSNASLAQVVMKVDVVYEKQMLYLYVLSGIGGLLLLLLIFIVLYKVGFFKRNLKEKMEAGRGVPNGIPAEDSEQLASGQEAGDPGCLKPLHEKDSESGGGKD

[16] = biological target: T2, rhesus CD11a; test: cell-based or functional assay
[17] = biological target: T2, rhesus CD11a; test: cell-based or functional assay; remark: listed apart in the source
[18] = biological target: T2, rhesus CD11a; test: saturation binding, rhesus leukocytes, donor 3, with 1 mg/ml human IgG1, Kd(app)
[19] = biological target: T2, rhesus CD11a; test: binding to rhesus peripheral blood lymphocytes; remark: listed apart in the source
[20] = biological target: T3, rhesus-human chimeric CD11a (Rh/HuCD11a); test: cell-based or functional assay; remark: listed apart in the source
[21] = biological target: T2, rhesus CD11a; test: cell-based or functional assay; remark: listed apart in the source
[22] = biological target: T1, human CD11a; test: FACScan, Jurkat cells; remark: listed apart in the source

B1: murine MHM24 (antibody, V domains shown)
VH: EVQLQQPGAELMRPGASVKLSCKASGYSFTGHWMNWVRQRPGQGLEWIGMIHPSDSETRLNQKFKDKATLTVDKSSSSAYMQLSSPTSEDSAVYYCARGIYFYGTTYFDYWGQGTTLTVSS
VL: DVQITQSPSYLAASPGETISINCRASKTISKYLAWYQEKPGKTNKLLIYSGSTLQSGIPSRFSGSGSGTDFTLTISSLEPEDFAMYYCQQHNEYPLTFGTGTKLELKR
notes: Murine monoclonal antibody; also called muMHM24; murMHM24
[1]
  IC50, blocking of cell adhesion, Jurkat:HuK: 0.09 nM
[2]
  Kd: 0.13 nM
[3]
  fold reduction in binding against human CD11a: ~1000 fold
[4]
  Kd: 0.15 nM
[5]
  Kd: 0.16 nM

B2: humanized MHM24 IgG1 (HuIgG1) (antibody, V domains shown)
VH: EVQLVESGGGLVQPGGSLRLSCAASGYSFTGHWMNWVRQAPGKGLEWVGMIHPSDSETRYNQKFKDRFTISVDKSKNTLYLQMNSLRAEDTAVYYCARGIYFYGTTYFDYWGQGTLVTVSS
VL: DIQMTQSPSSLSASVGDRVTITCRASKTISKYLAWYQQKPGKAPKLLIYSGSTLQSGVPSRFSGSGSGTDFTLTISSLQPEDFATYYCQQHNEYPLTFGQGTKVEIKR
notes: F(ab)-8 VL and VH fused to human constant light and IgG1 heavy chains; also called HulgG1; huMHM24
[6]
  EC50 F(ab)/EC50 F(ab)-2: 0.004 ratio
[7]
  EC50: 45.6 nM
[8]
  EC50: 0.042 nM
[9]
  Var.EC50/HuIgG1 EC50: 1 ratio
[10]
  IC50, human mixed lymphocyte response assay: 0.38 nM
[1]
  IC50, blocking of cell adhesion, Jurkat:HuK: 0.13 nM
[2]
  Kd: 0.18 nM
[3]
  fold reduction in binding against human CD11a: ~1000 fold
[11]
  Var.EC50/HuIgG1 EC50: 1 ratio
[4]
  Kd: 0.15 nM
[5]
  Kd: 0.11 nM

B3: rhesus-binding MHM24 (RhIgG1), variant H2C12 (antibody, V domains shown)
VH: B2 VH with H52A, S54A, D55S, E57S
VL: B2 VL
notes: Human IgG1; also called H2C l2; H2Cl2
[12]
  fold down in Kd from HuIgG1 for human CD11a: ~26 fold
[13]
  fold weaker than the EC50 of HuIgG1 for human CD11a: 3 to 5 fold
[14]
  Kd: 3.9 nM
[15]
  fold down from MHM23, Rh/HuCD11a-293 cells to human keratinocytes: 4 fold
[16]
  fold less efficacious than MHM23, rhesus lymphocytes to human keratinocytes: 74 fold
  fold less efficacious than MHM23, rhesus lymphocytes to recombinant human ICAM-1: 4 fold
[17]
  IC50, rhesus mixed lymphocyte response assay: 23.4 nM
[18]
  Kd: 2.8 nM and 2.7 nM
[19]
  EC50: 0.19 nM
  fold improvement over the EC50 of HuIgG1 for rhesus CD11a: 240 to 415 fold
[20]
  IC50, blocking of cell adhesion, Rh/HuCD11a:HuK: 4.9 nM
[21]
  IC50, blocking of cell adhesion, RhLy:HuICAM: 5.3 nM
  IC50, blocking of cell adhesion, RhLy:HuK: 119 nM
[11]
  Var.EC50/HuIgG1 EC50: 0.004 ratio

B4: chimeric MHM24 IgG1 (chIgG1) (antibody, V domains shown)
VH: B1 VH
VL: B1 VL
notes: Murine VL and VH fused to human constant light and heavy (IgG1) chains; also called chimeric IgG1; chlgG1
[6]
  EC50 F(ab)/EC50 F(ab)-2: 0.006 ratio
[22]
  EC50: 0.0052 µg/mL
[1]
  IC50, blocking of cell adhesion, Jurkat:HuK: 0.1 nM

B5: humanized MHM24 F(ab)-1 (Fab, V domains shown)
VH: B2 VH with Y27F, N61A, Q62D, K63S, F64V, D66G, K74N
VL: DIQMTQSPSSLSASVGDRVTITCRASKTISKYLAWYQQKPGKAPKLLIYSGSSLESGVPSRFSGSGSGTDFTLTISSLQPEDFATYYCQQHNEYPLTFGQGTKVEIK
notes: F(ab) from E. coli (VH-CH1 and kappa light chain)
[6]
  binding result: no binding

B6: humanized MHM24 F(ab)-2 (Fab, V domains shown)
VH: B2 VH with Y27F, K74N
VL: B5 VL
notes: F(ab) from E. coli
[6]
  EC50: 0.771 µg/mL
  EC50 F(ab)/EC50 F(ab)-2: 1 ratio
[22]
  fold weaker EC50 than chimeric IgG1: 148 fold

B7: humanized MHM24 F(ab)-6 (Fab, V domains shown)
VH: B2 VH with Y27F, K76S, N77S
VL: B5 VL with S53T, E55Q
[6]
  EC50 F(ab)/EC50 F(ab)-2: 0.012 ratio
[22]
  fold improvement in binding over F(ab)-5: 4 fold

B8: humanized MHM24 F(ab)-7 (Fab, V domains shown)
VH: B2 VH with K76S, N77S
VL: B5 VL with S53T, E55Q
[6]
  EC50 F(ab)/EC50 F(ab)-2: 0.004 ratio
[22]
  fold improvement in binding over F(ab)-6: 3 fold

B9: H2C11 variant IgG1 (antibody, V domains shown)
VH: B2 VH with H52A, S54A, D55S, E57N
VL: B5 VL with S53T, E55Q
notes: HuIgG1 variant, human IgG1
[13]
  fold weaker than the EC50 of HuIgG1 for human CD11a: 3 to 5 fold
[19]
  EC50: 0.11 nM
  fold improvement over the EC50 of HuIgG1 for rhesus CD11a: 240 to 415 fold
[11]
  Var.EC50/HuIgG1 EC50: 0.002 ratio
